In this assay the target is T1, CXCR7 (HA tagged) overexpressed in HEK 293T cells (UniProt P56485 1-362).
T1 construct: CXCR7 (C-X-C chemokine receptor type 7), HA tagged, overexpressed from an expression plasmid in HEK 293T cells; source: HEK 293T, transfected, in lysate
The assay can be described thus: ELISA; saturation binding: lysates of HEK 293T cells overexpressing the receptor loaded onto high-affinity-binding ELISA plates coated with anti-HA antibody; serial dilutions of AP-conjugated ligand (or AP alone); AP activity read; Scatchard analysis; n=3. Particulars: one partner purified. On the technique in general: In an ELISA, binding on a coated surface is turned into a signal by an enzyme label.

What is called Kd is a measure of binding affinity in units of concentration. Lower therefore signals a tighter complex.

T1 sequence (P56485 whole entry): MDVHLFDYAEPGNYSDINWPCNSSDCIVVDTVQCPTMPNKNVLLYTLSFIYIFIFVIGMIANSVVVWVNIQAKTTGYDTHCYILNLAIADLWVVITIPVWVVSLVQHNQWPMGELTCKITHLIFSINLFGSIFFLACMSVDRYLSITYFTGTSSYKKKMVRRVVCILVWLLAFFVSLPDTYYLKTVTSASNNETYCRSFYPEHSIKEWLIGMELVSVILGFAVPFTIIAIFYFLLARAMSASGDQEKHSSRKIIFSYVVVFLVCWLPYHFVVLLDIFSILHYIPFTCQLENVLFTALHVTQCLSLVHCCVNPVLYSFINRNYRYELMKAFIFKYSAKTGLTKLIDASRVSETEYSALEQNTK

B1: Dkk3-AP (Dkk3 conjugated with alkaline phosphatase) (ligand)
chain: not shown
Turning to B1, binding was put at a Kd of 14.1 nM.

Values taken from article PMC6092110, “Binding of Dickkopf-3 to CXCR7 Enhances Vascular Progenitor Cell Migration and Degradable Graft Regeneration” (Circulation Research, 2018).
